Data set [1] concerns the target LAG-3 (Homo sapiens) (UniProt P18627). As to conditions: cited from earlier work.
Data set [2] concerns the molecule itself. Put plainly: SEC; Superdex 200, 20 mM Tris pH 8.0, 150 mM NaCl; FGL1-Fc after anti-Flag M2 affinity; one aggregate peak and two FGL1 peaks, the peak at approximately 66 mL taken as the homodimer.

Sequence of LAG-3 (Homo sapiens) (P18627 23-450): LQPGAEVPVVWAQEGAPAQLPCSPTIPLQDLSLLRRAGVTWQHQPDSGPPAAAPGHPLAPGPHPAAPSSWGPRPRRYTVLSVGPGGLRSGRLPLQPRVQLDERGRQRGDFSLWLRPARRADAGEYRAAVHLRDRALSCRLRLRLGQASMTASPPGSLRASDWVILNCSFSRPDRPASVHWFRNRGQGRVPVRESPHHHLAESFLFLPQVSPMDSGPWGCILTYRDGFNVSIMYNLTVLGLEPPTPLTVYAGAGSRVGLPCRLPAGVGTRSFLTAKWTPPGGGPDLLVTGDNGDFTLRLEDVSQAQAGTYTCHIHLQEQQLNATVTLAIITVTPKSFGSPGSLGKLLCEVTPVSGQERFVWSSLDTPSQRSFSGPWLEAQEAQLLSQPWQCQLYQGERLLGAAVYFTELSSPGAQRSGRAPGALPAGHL

In the case of FGL1 (from UniProt Q08830), the equilibrium dissociation constant (Kd) in data set [1] was 1.5 nM.

B1: FGL1-Fc fusion protein (human fibrinogen-like protein 1 with C-terminal human IgG1 Fc and Flag tag) (Fc fusion, UniProt Q08830 23-306, looked up)
chain: LEDCAQEQMRLRAQVRLLETRVKQQQVKIKQLLQENEVQFLDKGDENTVIDLGSKRQYADCSEIFNDGYKLSGFYKIKPLQSPAEFSVYCDMSDGGGWTVIQRRSDGSENFNRGWKDYENGFGNFVQKHGEYWLGNKNLHFLTTQEDYTLKIDLADFEKNSRYAQYKNFKVGDEKNFYELNIGEYSGTAGDSLAGNFHPEVQWWASHQRMKFSTWDRDHDNYEGNCAEEDQSGWWFNRCHSANLNGVYYSGPYTAKTDNGIVWYTWHGWWYSLKSVVMKIRPND
notes: signal peptide in the construct; human fibrinogen-like protein 1 (FGL1), amino acids 1-306 of NCBI NM_004467, called full-length in the methods; the results say that the protein has 312 amino acids; A 3C protease site and a linker (GGGGS) stand between FGL1 and the Fc, and the Flag tag follows the Fc; The Fc may itself hold the dimer together; For SPR and the ELISAs the Fc was cut off with 3C …
Take B1: the “stoichiometry N” value in data set [2] was 2.

The record behind these values is PMC8563870, “Development of a nanobody-based immunoassay for the sensitive detection of fibrinogen-like protein 1” (Acta Pharmacologica Sinica, 2021).
